Here are results for 5 molecules from patent US20120316071A1 (published 2012).

Assay [1] addresses T1, rHuman Notch-1/Fc Chimera, CF (R&D Systems Cat#3647-TK) (human, UniProt P46531 19-526).
T1 construct: Bought recombinant protein; Fc part of the bought chimera not given
The experiment in a line: ECL multispot (MSD) assay, antigen spotted on plate, Fab at 0.01 µM.

Assay [2] has as its target T2, rHuman CD44/Fc Chimera, CF (R&D Systems Cat#3660-CD) (human, UniProt P16070 21-220).
T2 construct: Bought recombinant protein; Fc part of the bought chimera not given
Described as above.

Assay [3] has as its target T3, rHuman ErbB2/Fc Chimera, CF (R&D Systems Cat#1129-ER) (human, UniProt P04626 23-652).
T3 construct: Bought recombinant protein; also called human epidermal growth factor 2 receptor; Fc part of the bought chimera not given
Described as above.

For assay [4], the target named is T4, Recombinant Human DLL4 (R&D Systems Cat#1506-D4/CF) (human, UniProt Q9NR61 27-524).
T4 construct: Bought recombinant protein; also called delta-like protein 4; rHuman DLL4
Described as above.

The target of assay [5] is T5, rHuman P-Cadherin/Fc Chimera, CF (R&D Systems Cat#861-PC) (human, UniProt P22223 108-654).
T5 construct: Bought recombinant protein; Fc part of the bought chimera not given
Described as above.

Assay [6] has as its target T6, rHuman IGF-1 sR, CF (R&D Systems Cat#391-GR) (human, UniProt P08069 31-932).
T6 construct: Bought recombinant soluble receptor; also called insulin-like growth factor-1 soluble receptor
The assay is described as above.

Assay [7] addresses T7, rHuman EGF R/Fc Chimera, CF (R&D Systems Cat#344-ER) (human, UniProt P00533 25-645).
T7 construct: Bought recombinant protein; also called epidermal growth factor receptor; Fc part of the bought chimera not given
Described as above.

For assay [8], the target named is T8, rHuman HGF R/c-MET/Fc Chimera, CF (R&D Systems Cat#358-MT/CF) (human, UniProt P08581 25-932).
T8 construct: Bought recombinant protein; also called HGF R/Fc; hepatocyte growth factor receptor; Fc part of the bought chimera not given
The assay is described as above.

Assay [9] addresses T9, rHuman Erythropoietin R/Fc Chimera, CF (R&D Systems Cat#963-ER) (human, UniProt P19235 25-250).
T9 construct: Bought recombinant protein; also called EPO R; EPO R/Fc; Fc part of the bought chimera not given
T9 sequence (looked up): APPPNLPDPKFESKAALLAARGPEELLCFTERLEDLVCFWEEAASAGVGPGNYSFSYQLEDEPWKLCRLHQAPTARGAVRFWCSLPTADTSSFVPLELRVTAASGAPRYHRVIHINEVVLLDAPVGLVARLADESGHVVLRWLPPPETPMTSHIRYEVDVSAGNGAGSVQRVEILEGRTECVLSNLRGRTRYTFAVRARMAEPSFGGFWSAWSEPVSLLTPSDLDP
Described as above.

Assay [10] concerns the target T10, Recombinant Human DLL4 (R&D Systems Cat#1506-D4/CF) (human, UniProt Q9NR61 27-524).
T10 construct: Bought recombinant protein; also called delta-like protein 4; rHuman DLL4
The assay can be described thus: ECL multispot (MSD) binding assay; DLL4 signal over blank spot.

In assay [11] the target is T10, Recombinant Human DLL4 (R&D Systems …). The assay can be described thus: ECL multispot (MSD) binding assay; DLL4 spotted on the plate, purified Fab added.
Assay [12] addresses T11, Recombinant Human DLL4 (delta-like protein 4) (human, UniProt Q9NR61 27-524).
T11 construct: Bought recombinant protein (R&D Systems Cat#1506-D4/CF); also called rHuman DLL4; Delta-like 4
The experiment in a line: ECL Multispot (MSD) binding assay, DLL4 spotted on plate, 10 nM Fab.

Assay [13] concerns the target T12, Recombinant Human DLL4 (delta-like protein 4) (human, UniProt Q9NR61 27-524).
T12 construct: Bought recombinant protein (R&D Systems Cat#1506-D4/CF), spotted on the MSD plate; also called rHuman DLL4; Delta-like 4
The experiment in a line: ECL Multispot (MSD) binding assay, DLL4 spotted on plate, 10 nM Fab; ECL signal over blank spot.

T8 sequence (P08581 25-932, change not shown): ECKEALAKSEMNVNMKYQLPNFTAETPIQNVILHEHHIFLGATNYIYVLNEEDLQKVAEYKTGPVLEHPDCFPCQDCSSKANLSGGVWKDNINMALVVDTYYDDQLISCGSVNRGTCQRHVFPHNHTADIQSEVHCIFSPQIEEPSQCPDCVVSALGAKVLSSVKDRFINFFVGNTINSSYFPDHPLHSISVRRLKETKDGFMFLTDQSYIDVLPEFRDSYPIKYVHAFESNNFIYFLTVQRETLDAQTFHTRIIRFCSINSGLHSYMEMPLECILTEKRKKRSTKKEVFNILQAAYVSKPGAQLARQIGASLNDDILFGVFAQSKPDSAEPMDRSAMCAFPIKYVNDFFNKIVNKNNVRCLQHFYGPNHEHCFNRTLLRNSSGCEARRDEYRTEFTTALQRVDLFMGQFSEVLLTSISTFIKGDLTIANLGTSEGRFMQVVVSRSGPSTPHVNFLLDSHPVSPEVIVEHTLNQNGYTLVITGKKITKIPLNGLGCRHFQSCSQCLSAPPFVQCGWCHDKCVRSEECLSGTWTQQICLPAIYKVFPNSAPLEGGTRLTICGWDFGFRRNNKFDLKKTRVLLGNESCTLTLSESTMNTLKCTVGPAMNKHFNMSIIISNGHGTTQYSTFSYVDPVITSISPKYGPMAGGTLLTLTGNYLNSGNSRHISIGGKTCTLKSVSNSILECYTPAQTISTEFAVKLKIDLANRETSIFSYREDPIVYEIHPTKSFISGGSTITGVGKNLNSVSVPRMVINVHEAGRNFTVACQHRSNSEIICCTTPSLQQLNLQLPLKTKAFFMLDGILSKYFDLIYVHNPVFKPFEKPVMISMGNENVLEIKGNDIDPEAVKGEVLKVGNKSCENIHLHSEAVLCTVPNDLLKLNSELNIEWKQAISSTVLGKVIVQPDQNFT

B1: Fab VH1-46_IGHD6-6*01_IGHJ1*01 & L6_IGKJ1*01 (Fab, V domains shown)
VH: QVQLVQSGAEVKKPGASVKVSCKASGYTFTSYYMHWVRQAPGQGLEWMGIINPSGGSTSYAQKFQGRVTMTRDTSTSTVYMELSSLRSEDTAVYYCAREEYSSSSAEYFQHWGQGTLVTVSS
VL: not shown
notes: Tested as a Fab expressed in E. coli; The heavy chain variable region was cloned into Plasmid A (CH1, His6 and Flag tags) and the kappa light chain variable region into Plasmid C (kappa CL); also called Parent; parental
As to B1, the ECL signal/noise ratio in assay [1] turned out to be 0.5; in assay [2], 1.1; in assay [3], 1; in [4] it was 4.9; in assay [5] it was 1; in assay [6] it was 0.8. The ECL signal/noise ratio in [7] amounted to 0.9; in [8], 0.9; in assay [9], 1.

B2: Fab VH1-46_IGHD6-6*01_IGHJ1*01 S102A/S103P/S104F/H111F (APFF) & L6_IGKJ1*01 (Fab, V domains shown)
VH: QVQLVQSGAEVKKPGASVKVSCKASGYTFTSYYMHWVRQAPGQGLEWMGIINPSGGSTSYAQKFQGRVTMTRDTSTSTVYMELSSLRSEDTAVYYCAREEYAPFSAEYFQFWGQGTLVTVSS
VL: not shown
notes: Tested as an E. coli-expressed Fab; also called H:APFF & L:wt; APFF parent
For B2, the Signal/Blank in assay [10] is 611 ratio. Further, the “ECL signal” value in assay [11] worked out at 189000 ECL counts.

B3: Fab VH1-46_IGHD6-6*01_IGHJ1*01 S102A/S103P/S104F A106E & L6_IGKJ1*01 (Fab, V domains shown)
VH: QVQLVQSGAEVKKPGASVKVSCKASGYTFTSYYMHWVRQAPGQGLEWMGIINPSGGSTSYAQKFQGRVTMTRDTSTSTVYMELSSLRSEDTAVYYCAREEYAPFSEEYFQHWGQGTLVTVSS
VL: not shown
notes: Tested as Fab; also called APF A106E
B3: the Signal/Noise in [12] is 4.3.

B4: Fab VH1-46_IGHD6-6*01_IGHJ1*01 S102A/S103P/S104F G55W & L6_IGKJ1*01 (Fab, V domains shown)
VH: QVQLVQSGAEVKKPGASVKVSCKASGYTFTSYYMHWVRQAPGQGLEWMGIINPSWGSTSYAQKFQGRVTMTRDTSTSTVYMELSSLRSEDTAVYYCAREEYAPFSAEYFQHWGQGTLVTVSS
VL: not shown
notes: Tested as Fab; also called APF G55W
Consider B4, for which the Signal/Noise in assay [12] stood at 8.

B5: Fab VH1-46_IGHD6-6*01_IGHJ1*01 S102A/S103P/S104F/H111F & L6_IGKJ1*01 (Fab, V domains shown)
VH: QVQLVQSGAEVKKPGASVKVSCKASGYTFTSYYMHWVRQAPGQGLEWMGIINPSGGSTSYAQKFQGRVTMTRDTSTSTVYMELSSLRSEDTAVYYCAREEYAPFSAEYFQFWGQGTLVTVSS
VL: not shown
notes: Fab format is as for m1 (CH1 with His6/Flag from Plasmid A, kappa CL from Plasmid C); also called APFF; H:APFF & L:wt
Regarding B5, in assay [13], the Signal/Noise stood at 42.5.
